Laboratory results as given in publication PMC6172466 (EMBO Reports, 2018).
Where a chain is given by its changes, count along the chain named. Names may count otherwise. Blank lines part the entries; values can stand above or below the binder they belong to.

Legend:
ubiquitin (untagged) = target: T1, ubiquitin (untagged) (UniProt P0CG48 1-76); assay: ITC; 30 μM DUBm in the cell, 0.3 mM K48-linked diubiquitin or monoubiquitin injected; 25°C; 20 mM HEPES pH 7, 150 mM NaCl, 5 nM ZnCl2, 0.5 mM TCEP; one-site binding model; details: both partners purified
T1 construct: ubiquitin, untagged (pET3a), free C-terminus at Gly76; also called monoubiquitin; free ubiquitin; source: E. coli Rosetta 2, purified (perchloric acid, HiTrap SP, HiLoad S75)

[1] = target: T2, N-terminally TAMRA-labeled monoubiquitin (UniProt P0CG48 1-76, TAMRA on the N-terminus); assay: fluorescence polarisation; equilibrium binding of USP4 to TAMRA-labelled ubiquitin species; as described in ref. 32; details: both partners purified
T2 construct: ubiquitin with a free C-terminus; also called TAMRA-monoubiquitin; ubiquitin labeled with an N-terminal fluorophore

- Kd (ubiquitin (untagged)): 12.8 µM
B3: SAGA DUB module containing Ubp8^C146S (complex, yeast)
chain 1: MSICPHIQQVFQNEKSKDGVLKTCNAARYILNHSVPKEKFLNTMKCGTCHEINSGATFMCLQCGFCGCWNHSHFLSHSKQIGHIFGINSNNGLLFCFKCEDYIGNIDLINDAILAKYWDDVCTKTMVPSMERRDGLSGLINMGSTSFMSSILQCLIHNPYFIRHSMSQIHSNNCKVRSPDKCFSCALDKIVHELYGALNTKQASSSSTSTNRQTGFIYLLTCAWKINQNLAGYSQQDAHEFWQFIINQIHQSYVLDLPNAKEVSRANNKQCECIVHTVFEGSLESSIVCPGCQNNSKTTIDPFLDLSLDIKDKKKLYECLDSFHKKEQLKDFNYHCGECNSTQDAIKQLGIHKLPSVLVLQLKRFEHLLNGSNRKLDDFIEFPTYLNMKNYCSTKEKDKHSENGKVPDIIYELIGIVSHKGTVNEGHYIAFCKISGGQWFKFNDSMVSSISQEEVLKEQAYLLFYTIRQVN
chain 2: MTEETITIDSISNGILNNLLTTLIQDIVARETTQQQLLKTRYPDLRSYYFDPNGSLDINGLQKQQESSQYIHCENCGRDVSANRLAAHLQRCLSRGARR
chain 3: MTMDTAQLKSQIQQYLVESGNYELISNELKARLLQEGWVDKVKDLTKSEMNINESTNFTQILSTVEPKALEMVSDSTRETVLKQIREFLEEIVDTQ
chain 4: MRSGDAEIKGIKPKVIEEYSLSQGSGPSNDSWKSLMSSAKDTPLQYDHMNRESLKKYFNPNAQLIEDPLDKPIQYRVCEKCGKPLALTAIVDHLEN
notes: Ubp8, catalytic USP subunit of the yeast SAGA DUB module, active site cysteine changed; Sgf11, subunit of the yeast SAGA DUB module (pCDFDuet-1 MCSI); Sus1, subunit of the yeast SAGA DUB module (pRSF-1); Sgf73 residues 1-96, subunit of the yeast SAGA DUB module (pCDFDuet-1 MCSII); Heterotetramer; also called DUBm-Ubp8^C146S; copies: + + +

- Kd [1]: 0.0006 ± 0.00017 µM
B4: USP4 (8-925) C311A (enzyme, human, UniProt Q13107 8-925, looked up)
chain: RERPDAETQKSELGPLMRTTLQRGAQWYLIDSRWFKQWKKYVGFDSWDMYNVGEHNLFPGPIDNSGLFSDPESQTLKEHLIDELDYVLVPTEAWNKLLNWYGCVEGQQPIVRKVVEHGLFVKHCKVEVYLLELKLCENSDPTNVLSCHFSKADTIATIEKEMRKLFNIPAERETRLWNKYMSNTYEQLSKLDNTVQDAGLYQGQVLVIEPQNEDGTWPRQTLQSKSSTAPSRNFTTSPKSSASPYSSVSASLIANGDSTSTCGMHSSGVSRGGSGFSASYNCQEPPSSHIQPGLCGLGNLGNTAFMNSALQCLSNTAPLTDYFLKDEYEAEINRDNPLGMKGEIAEAYAELIKQMWSGRDAHVAPRMFKTQVGRFAPQFSGYQQQDSQELLAFLLDGLHEDLNRVKKKPYLELKDANGRPDAVVAKEAWENHRLRNDSVIVDTFHGLFKSTLVCPECAKVSVTFDPFCYLTLPLPLKKDRVMEVFLVPADPHCRPTQYRVTVPLMGAVSDLCEALSRLSGIAAENMVVADVYNHRFHKIFQMDEGLNHIMPRDDIFVYEVCSTSVDGSECVTLPVYFRERKSRPSSTSSASALYGQPLLLSVPKHKLTLESLYQAVCDRISRYVKQPLPDEFGSSPLEPGACNGSRNSCEGEDEEEMEHQEEGKEQLSETEGSGEDEPGNDPSETTQKKIKGQPCPKRLFTFSLVNSYGTADINSLAADGKLLKLNSRSTLAMDWDSETRRLYYDEQESEAYEKHVSMLQPQKKKKTTVALRDCIELFTTMETLGEHDPWYCPNCKKHQQATKKFDLWSLPKILVVHLKRFSYNRYWRDKLDTVVEFPIRGLNMSEFVCNLSARPYVYDLIAVSNHYGAMGVGHYTAYAKNKLNGKWYYFDDSNVSLASEDQIVTKAAYVLFYQRRDD
notes: human USP4, residues 8-925, active site cysteine C311 changed to alanine; also called USP4^C311A; USP4 C311A

Continued, binder first:

B1: SAGA DUB module containing wild-type Ubp8 (complex, yeast)
chain 1: B3 chain 1 with S146C
chain 2: B3 chain 2
chain 3: B3 chain 3
chain 4: B3 chain 4
notes: Ubp8, catalytic USP subunit of the yeast SAGA DUB module; Sgf11, subunit of the yeast SAGA DUB module (pCDFDuet-1 MCSI); Sus1, subunit of the yeast SAGA DUB module (pRSF-1); Sgf73 residues 1-96, subunit of the yeast SAGA DUB module (pCDFDuet-1 MCSII); Heterotetramer; also called DUBm-Ubp8^WT; wild-type DUBm; copies: + + +
- Kd (ubiquitin (untagged)): 13.9 µM

B2: SAGA DUB module containing Ubp8^C146A (complex, yeast)
chain 1: B3 chain 1 with S146A
chain 2: B3 chain 2
chain 3: B3 chain 3
chain 4: B3 chain 4
notes: Ubp8, catalytic USP subunit of the yeast SAGA DUB module, active site cysteine changed; Sgf11, subunit of the yeast SAGA DUB module (pCDFDuet-1 MCSI); Sus1, subunit of the yeast SAGA DUB module (pRSF-1); Sgf73 residues 1-96, subunit of the yeast SAGA DUB module (pCDFDuet-1 MCSII); Heterotetramer; also called DUBm-Ubp8^C146A; DUB module-Ubp8^C146A; copies: + + +
- Kd (ubiquitin (untagged)): 0.43 µM
